The results in this text go back to patent US20060073571A1 (CORNELL RESEARCH FOUNDATION, published 2006).

The labels stand for the following.
B1: recombinant chimeric protein hLH-R-ECD-hCG-β-CTP (extracellular domain of hLH-R, Gly-Thr linker, carboxyl terminal peptide of hCG-β) (receptor)
chain: LPRALREALCPEPCNCVPDGALRCPGPTAGLTRLSLAYLPVKVIPSQAFRGLNEVIKIEISQIDSLERIEANAFDNLLNLSEILIQNTKNLRYIEPGAFINLPRLKYLSICNTGIRKFPDVTKVFSSESNFILEICDNLHITTIPGNAFQGMNNESVTLKLYGNGFEEVQSHAFNGTTLTSLELKENVHLEKMHNGAFRGATGPKTLDISSTKLQALPSYGLESIQRLIATSSYSLKKLPSRETFVNLLEATLTYPSHCCAFRNLPTKEQNFSHSISENFSKQCESTVRKVSNKTLYSSMLAESELSGWDYEYGFCLPKTPRCAPEPGTLTCDDPRFQDSSSSKAPPPSLPSPSRLPGPSDTPILPQ
notes: The vector was pBlueBac4.5/V5-His; also called chimera 3; hLH-R-ECD/hCG-CTP
B2: human chorionic gonadotropin (hCG), highly purified, CR-125, NICHD (ligand)
chain 1: not shown
chain 2: SKEPLRPRCRPINATLAVEKEGCPVCITVNTTICAGYCPTMTRVLQGVLPALPQVVCNYRDVRFESIRLPGCPRGVNPVVSYAVALSCQCALCRRSTTDCGGPKDHPLTCDDPRFQDSSSSKAPPPSLPSPSRLPGPSDTPILPQ

The target of experiment [1] is B2. Kind of experiment: displacement of biotinylated-hCG by unlabeled hCG on transfected Sf9 cells, HRP-streptavidin ELISA. As to the method: A competitive binding assay was performed to determine whether hCG would bind to the chimeric protein containing both hLH-R-ECD and hCG-β-CTP. After 24 hr of transfection with recombinant baculovirus, Sf9 insect cells were incubated for 24 hr at 27° C. with 20 ng/μl of biotinylated-hCG and increasing concentrations of unlabeled hCG as the competitor. The Sf9 cells infected with the recombinant baculovirus containing ECD of LH-R alone was set up as the control. The binding of biotinylated-hCG on the surface of the Sf9 insect cells was examined by ELISA using horseradish peroxidase (HRP)-streptavidin conjugate.

Experiment [2] has as its target recombinant chimeric hLH-R-hCG-β fusion protein (full-length human lutropin hormone receptor, Arg-Ser linker, … (human)). Description: cell-based or functional assay.

As for B1, the binding result in experiment [1] was “binds”.
With B2, in experiment [2], the “intracellular cAMP, increase over baseline” value was around 6 fold.
